Patent publication US20050277167A1 (published 2005)

Molecular target: T1, chicken prolyl 3-hydroxylase 1 (chicken P3H1) (chicken, UniProt Q6JHU8 15-725)
T1 construct: Native protein from chick embryos (gelatin sepharose, then 1C10 antibody column); also called chick homologue of leprecan; 90 kDa protein
T1 sequence: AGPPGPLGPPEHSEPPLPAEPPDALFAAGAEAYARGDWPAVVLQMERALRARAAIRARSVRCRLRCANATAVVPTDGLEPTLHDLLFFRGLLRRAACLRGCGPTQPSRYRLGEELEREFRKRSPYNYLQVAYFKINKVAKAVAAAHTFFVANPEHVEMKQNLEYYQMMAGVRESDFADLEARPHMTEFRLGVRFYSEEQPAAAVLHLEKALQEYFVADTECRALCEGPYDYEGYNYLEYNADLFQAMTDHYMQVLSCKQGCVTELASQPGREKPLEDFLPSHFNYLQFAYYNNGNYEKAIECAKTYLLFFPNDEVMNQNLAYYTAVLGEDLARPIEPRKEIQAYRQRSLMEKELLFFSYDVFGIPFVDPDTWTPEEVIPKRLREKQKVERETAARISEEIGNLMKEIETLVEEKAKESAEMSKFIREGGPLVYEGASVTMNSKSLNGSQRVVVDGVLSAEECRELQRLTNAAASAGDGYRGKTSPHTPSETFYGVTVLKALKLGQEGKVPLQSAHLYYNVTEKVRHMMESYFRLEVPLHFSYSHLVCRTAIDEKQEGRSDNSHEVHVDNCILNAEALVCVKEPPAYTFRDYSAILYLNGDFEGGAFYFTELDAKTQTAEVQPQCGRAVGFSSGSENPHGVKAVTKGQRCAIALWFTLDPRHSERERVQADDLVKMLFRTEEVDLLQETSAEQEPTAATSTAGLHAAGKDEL
Test: co-retention on 1C10 (anti-P3H1) column, elution at pH 6 and 0.5 M NaCl, SDS-PAGE and sequencing
Experimental: The antibody was produced and selected by standard methods and specificity of the antibody was determined using immunoblotting and ELISA techniques. The antibody recognizes both nonreduced and reduced (at much lower affinity) P3H1 and was used to create an affinity column for the purpose of protein purification. Briefly, a 2 ml column was created using approximately 10 mg of the 1C10 antibody and AminoLink® plus coupling gel (Pierce) following the manufacturer's instructions. Pooled and dialyzed peak fractions from the gelatin sepharose elution were then loaded onto the antibody column and the flow through was collected and concentrated for further purification of prolyl 4-hydroxylase and PDI by sieve chromatography on superose 12 resin (Pharmacia). The 1C10 antibody column was washed with 5 volumes of PBS (procedure described in Current Protocols in Protein Science Online), and then washed with 5 volumes of wash B buffer containing 50 mM sodium phosphate, pH 6.0, 0.5 M NaCl, and 0.1% Triton X-100 to elute associated proteins. […] Sequences of proteins eluted with the wash B buffer were determined by Edman degradation in a protein sequencer (Applied Biosystems Procise Sequencer). […]

binding result: binds
B1: cyclophilin B (CYPB) (enzyme)
chain: not shown
notes: Native protein from chick embryos, 21 kDa on SDS-PAGE; also called 21 kDa protein
